Results published in article PMC8981990.

Target: PKM2 (pyruvate kinase M2 isoform) (human (endogenous in U87)) (UniProt P14618)
Experiment: cross-linking; cell lysates (100 ug) of U87, T98G or LN319 cells 10 h after release, glutaraldehyde 0.125%, 5 min, 37 C, Western blot for PKM2; vehicle or DASA-58 (40 uM, 3 h)

PKM2 (pyruvate kinase M2 isoform), P14618 1-531 (natural protein; other documents disagree on this pair), sequence (P14618 whole entry, canonical isoform): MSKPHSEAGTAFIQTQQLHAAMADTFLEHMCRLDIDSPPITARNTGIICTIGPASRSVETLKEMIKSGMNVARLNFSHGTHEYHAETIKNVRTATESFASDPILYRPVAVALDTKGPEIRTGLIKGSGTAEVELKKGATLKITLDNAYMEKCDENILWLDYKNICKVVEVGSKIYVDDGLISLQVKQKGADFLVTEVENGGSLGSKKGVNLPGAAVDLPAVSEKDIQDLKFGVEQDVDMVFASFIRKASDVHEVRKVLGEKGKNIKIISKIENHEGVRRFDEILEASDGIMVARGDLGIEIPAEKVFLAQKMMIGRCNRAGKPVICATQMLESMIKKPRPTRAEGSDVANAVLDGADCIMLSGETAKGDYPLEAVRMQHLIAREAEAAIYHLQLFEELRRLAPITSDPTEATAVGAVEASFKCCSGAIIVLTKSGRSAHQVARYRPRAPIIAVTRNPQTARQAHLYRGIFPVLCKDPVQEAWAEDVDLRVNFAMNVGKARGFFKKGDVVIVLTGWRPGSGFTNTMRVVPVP

Substance: PKM2 (pyruvate kinase M2 isoform), P14618 1-531 (natural protein; other documents disagree on this pair)
- stoichiometry N: 2
